The data set concerns the target T1, ABH2 WT (human, UniProt Q6NS38 1-261).
T1 sequence: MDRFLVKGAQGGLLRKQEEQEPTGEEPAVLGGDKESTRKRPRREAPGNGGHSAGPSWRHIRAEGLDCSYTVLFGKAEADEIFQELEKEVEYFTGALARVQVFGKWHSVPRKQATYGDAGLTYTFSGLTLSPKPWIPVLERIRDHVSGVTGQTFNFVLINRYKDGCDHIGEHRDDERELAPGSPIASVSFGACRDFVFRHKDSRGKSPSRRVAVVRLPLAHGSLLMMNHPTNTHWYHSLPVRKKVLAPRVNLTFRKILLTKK
Description: EMSA; 0.5 mM αKG, 10 mM Mg2+, 2 mM ascorbate; EMSA: 50 mM Tris-HCl pH 8.0, 50 mM KCl, 10 mM MgCl2, 0.5 mM αKG, 2 mM Na ascorbate; 1.2 µM DNA, 0.4-12.8 µM protein; 10 min 37 °C then 5 min on ice; 10% native. The following applies: protein: recombinant; tags: N-terminal His6; label: 5'-FAM on strand 1; blunt. (In EMSA bound probe runs differently from free probe, usually more slowly.)

B1: m3C (dsDNA)
DNA 1: AGTTCAATGATCTTCAT
DNA 2: ATGAAGATCATTGAACT
modifications: N3-methylcytosine at position 12 of strand 1
One may read the Kd as the constant that tells how readily two partners part at equilibrium. Turning to B1, the Kd was determined as 3500 ± 100 nM.

B2: m1A (dsDNA)
DNA 1: AGTTCAATGATCTTCAT
DNA 2: ATGAAGATCATTGAACT
modifications: N1-methyladenine at position 10 of strand 1
Take B2: the Kd stood at 2450 ± 70 nM.

(Values after article PMC10377887, “Individual Contributions of Amido Acid Residues Tyr122, Ile168, and Asp173 to the Activity and Substrate Specificity of Human DNA Dioxygenase ABH2”.)
